Laboratory results reported in US20240279333A1 (SYSTIMMUNE, published 2024).

B1: SI-35E18 (460C3-L1H1-scFv x PL230C6-Fab x 323H7-H4L1-scFv x 284A10-H1L1-scFv) (antibody, human IgG1, kappa)
heavy: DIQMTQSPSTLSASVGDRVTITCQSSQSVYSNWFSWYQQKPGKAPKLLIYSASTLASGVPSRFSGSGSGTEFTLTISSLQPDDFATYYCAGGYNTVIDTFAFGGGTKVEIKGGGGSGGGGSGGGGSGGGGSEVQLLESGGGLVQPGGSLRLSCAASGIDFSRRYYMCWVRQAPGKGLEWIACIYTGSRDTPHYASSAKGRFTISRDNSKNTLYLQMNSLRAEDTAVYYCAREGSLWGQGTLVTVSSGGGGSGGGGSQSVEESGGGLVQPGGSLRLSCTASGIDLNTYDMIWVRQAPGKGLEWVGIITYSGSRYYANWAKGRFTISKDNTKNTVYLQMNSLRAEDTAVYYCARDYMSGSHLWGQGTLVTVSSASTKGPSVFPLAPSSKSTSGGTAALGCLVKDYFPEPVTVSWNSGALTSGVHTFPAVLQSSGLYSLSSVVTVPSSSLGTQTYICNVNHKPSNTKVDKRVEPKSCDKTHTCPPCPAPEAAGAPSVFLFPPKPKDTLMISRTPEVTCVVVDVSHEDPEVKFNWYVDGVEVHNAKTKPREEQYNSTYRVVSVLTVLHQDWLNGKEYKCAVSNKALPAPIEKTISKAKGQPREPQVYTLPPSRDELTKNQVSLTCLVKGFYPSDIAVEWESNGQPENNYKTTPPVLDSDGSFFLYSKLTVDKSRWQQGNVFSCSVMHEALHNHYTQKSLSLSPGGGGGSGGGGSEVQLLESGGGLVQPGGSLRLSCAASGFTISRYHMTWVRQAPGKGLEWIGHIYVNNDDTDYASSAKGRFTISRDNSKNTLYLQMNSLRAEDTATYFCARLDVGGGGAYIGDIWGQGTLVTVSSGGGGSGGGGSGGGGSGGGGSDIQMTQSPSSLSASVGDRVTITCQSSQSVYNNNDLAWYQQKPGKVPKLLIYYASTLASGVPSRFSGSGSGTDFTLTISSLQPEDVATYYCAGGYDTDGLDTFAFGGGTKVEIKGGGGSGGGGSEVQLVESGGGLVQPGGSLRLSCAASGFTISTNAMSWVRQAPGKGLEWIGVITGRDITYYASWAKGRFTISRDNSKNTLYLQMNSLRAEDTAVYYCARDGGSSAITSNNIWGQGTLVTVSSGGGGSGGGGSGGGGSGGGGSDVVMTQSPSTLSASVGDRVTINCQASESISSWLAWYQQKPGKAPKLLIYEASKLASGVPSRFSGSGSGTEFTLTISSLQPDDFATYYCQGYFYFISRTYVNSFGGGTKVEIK
light: AYDMTQSPSSVSASVGDRVTIKCQASEDIYSFLAWYQQKPGKAPKLLIHSASSLASGVPSRFSGSGSGTDFTLTISSLQPEDFATYYCQQGYGKNNVDNAFGGGTKVEIKRTVAAPSVFIFPPSDEQLKSGTASVVCLLNNFYPREAKVQWKVDNALQSGNSQESVTEQDSKDSTYSLSSTLTLSKADYEKHKVYACEVTHQGLSSPVTKSFNRGEC
notes: Tetra-specific antibody, symmetric dimer
B2: SI-39E13 (420H5 x PL230 x 284A10 x 806) (antibody, human IgG1, kappa)
heavy: not shown
light: B1 light
notes: as for B1
B3: SI-39E10 (420H5 x PL230 x 806 x 284A10) (antibody, human IgG1, kappa)
heavy: not shown
light: B1 light
notes: as for B1
B4: SI-39E29 (806 x 284A10 x PL221 x 420H5) (antibody)
heavy: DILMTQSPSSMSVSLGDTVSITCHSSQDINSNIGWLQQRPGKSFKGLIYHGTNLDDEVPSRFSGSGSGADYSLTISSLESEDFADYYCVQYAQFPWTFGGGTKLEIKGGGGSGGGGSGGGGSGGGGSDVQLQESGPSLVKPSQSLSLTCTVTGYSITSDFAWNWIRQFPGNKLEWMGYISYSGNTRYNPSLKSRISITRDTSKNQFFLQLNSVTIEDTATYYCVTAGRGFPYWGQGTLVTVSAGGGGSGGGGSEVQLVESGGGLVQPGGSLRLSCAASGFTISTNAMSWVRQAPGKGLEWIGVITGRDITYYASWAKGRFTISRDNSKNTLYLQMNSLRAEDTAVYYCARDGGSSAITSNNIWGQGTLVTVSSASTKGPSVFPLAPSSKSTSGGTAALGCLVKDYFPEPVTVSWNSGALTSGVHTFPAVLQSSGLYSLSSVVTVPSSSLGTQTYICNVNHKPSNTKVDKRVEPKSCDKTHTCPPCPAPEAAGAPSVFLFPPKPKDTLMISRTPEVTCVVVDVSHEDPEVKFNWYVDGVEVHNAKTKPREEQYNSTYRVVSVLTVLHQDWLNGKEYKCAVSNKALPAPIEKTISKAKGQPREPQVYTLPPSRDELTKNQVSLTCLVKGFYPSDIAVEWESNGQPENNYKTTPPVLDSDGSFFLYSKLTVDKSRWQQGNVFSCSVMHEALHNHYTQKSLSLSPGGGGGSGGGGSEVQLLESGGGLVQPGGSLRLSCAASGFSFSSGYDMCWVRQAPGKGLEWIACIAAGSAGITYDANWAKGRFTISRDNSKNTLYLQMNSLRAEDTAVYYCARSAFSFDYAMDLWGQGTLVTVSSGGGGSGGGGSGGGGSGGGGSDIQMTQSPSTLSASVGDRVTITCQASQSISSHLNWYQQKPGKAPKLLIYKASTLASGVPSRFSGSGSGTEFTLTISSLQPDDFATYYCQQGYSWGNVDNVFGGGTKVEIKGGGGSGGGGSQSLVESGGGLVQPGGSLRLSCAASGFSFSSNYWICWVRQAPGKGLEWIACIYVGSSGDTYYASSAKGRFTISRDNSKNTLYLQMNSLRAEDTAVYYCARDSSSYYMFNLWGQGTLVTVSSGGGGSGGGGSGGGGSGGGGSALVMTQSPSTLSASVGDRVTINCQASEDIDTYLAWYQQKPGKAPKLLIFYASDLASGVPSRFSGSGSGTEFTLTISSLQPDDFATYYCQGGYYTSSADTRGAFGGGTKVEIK
light: DVVMTQSPSTLSASVGDRVTINCQASESISSWLAWYQQKPGKAPKLLIYEASKLASGVPSRFSGSGSGTEFTLTISSLQPDDFATYYCQGYFYFISRTYVNSFGGGTKVEIKRTVAAPSVFIFPPSDEQLKSGTASVVCLLNNFYPREAKVQWKVDNALQSGNSQESVTEQDSKDSTYSLSSTLTLSKADYEKHKVYACEVTHQGLSSPVTKSFNRGEC
notes: as for B1
B5: SI-39E23 (PL230 x 806 x 420H5 x 284A10) (antibody)
heavy: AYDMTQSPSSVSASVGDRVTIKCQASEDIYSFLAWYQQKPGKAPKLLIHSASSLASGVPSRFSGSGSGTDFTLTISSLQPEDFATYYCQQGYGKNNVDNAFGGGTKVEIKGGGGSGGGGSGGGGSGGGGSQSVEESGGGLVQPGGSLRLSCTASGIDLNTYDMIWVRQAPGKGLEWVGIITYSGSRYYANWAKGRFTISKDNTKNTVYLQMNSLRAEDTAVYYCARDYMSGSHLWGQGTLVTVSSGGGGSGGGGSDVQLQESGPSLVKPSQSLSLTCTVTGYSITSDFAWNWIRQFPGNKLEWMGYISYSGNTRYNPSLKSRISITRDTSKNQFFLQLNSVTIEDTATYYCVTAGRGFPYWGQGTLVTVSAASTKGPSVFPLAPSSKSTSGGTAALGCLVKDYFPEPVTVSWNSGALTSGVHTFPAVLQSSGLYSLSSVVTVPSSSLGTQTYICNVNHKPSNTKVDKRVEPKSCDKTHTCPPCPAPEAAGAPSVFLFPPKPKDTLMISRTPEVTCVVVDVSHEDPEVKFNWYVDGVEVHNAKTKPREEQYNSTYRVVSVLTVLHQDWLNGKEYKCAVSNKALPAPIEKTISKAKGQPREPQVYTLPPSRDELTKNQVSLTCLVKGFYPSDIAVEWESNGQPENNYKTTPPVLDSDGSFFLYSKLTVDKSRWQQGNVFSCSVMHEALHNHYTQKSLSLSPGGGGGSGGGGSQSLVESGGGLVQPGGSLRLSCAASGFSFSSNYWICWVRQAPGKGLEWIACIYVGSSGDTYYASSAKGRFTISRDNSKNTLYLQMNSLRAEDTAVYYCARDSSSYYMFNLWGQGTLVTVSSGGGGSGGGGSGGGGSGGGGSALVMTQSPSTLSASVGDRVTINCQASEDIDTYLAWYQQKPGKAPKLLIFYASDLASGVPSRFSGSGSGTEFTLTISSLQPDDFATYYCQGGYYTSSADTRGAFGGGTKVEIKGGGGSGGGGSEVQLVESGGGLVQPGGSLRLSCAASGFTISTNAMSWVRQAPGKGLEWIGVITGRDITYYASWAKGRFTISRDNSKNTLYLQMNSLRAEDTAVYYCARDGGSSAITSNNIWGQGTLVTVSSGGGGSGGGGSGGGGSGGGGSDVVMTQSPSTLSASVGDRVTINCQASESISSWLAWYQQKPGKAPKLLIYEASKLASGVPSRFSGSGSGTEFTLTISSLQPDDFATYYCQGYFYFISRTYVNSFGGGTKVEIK
light: DILMTQSPSSMSVSLGDTVSITCHSSQDINSNIGWLQQRPGKSFKGLIYHGTNLDDEVPSRFSGSGSGADYSLTISSLESEDFADYYCVQYAQFPWTFGGGTKLEIKRTVAAPSVFIFPPSDEQLKSGTASVVCLLNNFYPREAKVQWKVDNALQSGNSQESVTEQDSKDSTYSLSSTLTLSKADYEKHKVYACEVTHQGLSSPVTKSFNRGEC
notes: as for B1
B6: SI-39E18 (284A10 x 806 x PL221 x 420H5) (antibody)
heavy: not shown
light: B5 light
notes: as for B1
B7: SI-39E4 (PL230 x 806 x 284A10 x 420H5) (antibody)
heavy: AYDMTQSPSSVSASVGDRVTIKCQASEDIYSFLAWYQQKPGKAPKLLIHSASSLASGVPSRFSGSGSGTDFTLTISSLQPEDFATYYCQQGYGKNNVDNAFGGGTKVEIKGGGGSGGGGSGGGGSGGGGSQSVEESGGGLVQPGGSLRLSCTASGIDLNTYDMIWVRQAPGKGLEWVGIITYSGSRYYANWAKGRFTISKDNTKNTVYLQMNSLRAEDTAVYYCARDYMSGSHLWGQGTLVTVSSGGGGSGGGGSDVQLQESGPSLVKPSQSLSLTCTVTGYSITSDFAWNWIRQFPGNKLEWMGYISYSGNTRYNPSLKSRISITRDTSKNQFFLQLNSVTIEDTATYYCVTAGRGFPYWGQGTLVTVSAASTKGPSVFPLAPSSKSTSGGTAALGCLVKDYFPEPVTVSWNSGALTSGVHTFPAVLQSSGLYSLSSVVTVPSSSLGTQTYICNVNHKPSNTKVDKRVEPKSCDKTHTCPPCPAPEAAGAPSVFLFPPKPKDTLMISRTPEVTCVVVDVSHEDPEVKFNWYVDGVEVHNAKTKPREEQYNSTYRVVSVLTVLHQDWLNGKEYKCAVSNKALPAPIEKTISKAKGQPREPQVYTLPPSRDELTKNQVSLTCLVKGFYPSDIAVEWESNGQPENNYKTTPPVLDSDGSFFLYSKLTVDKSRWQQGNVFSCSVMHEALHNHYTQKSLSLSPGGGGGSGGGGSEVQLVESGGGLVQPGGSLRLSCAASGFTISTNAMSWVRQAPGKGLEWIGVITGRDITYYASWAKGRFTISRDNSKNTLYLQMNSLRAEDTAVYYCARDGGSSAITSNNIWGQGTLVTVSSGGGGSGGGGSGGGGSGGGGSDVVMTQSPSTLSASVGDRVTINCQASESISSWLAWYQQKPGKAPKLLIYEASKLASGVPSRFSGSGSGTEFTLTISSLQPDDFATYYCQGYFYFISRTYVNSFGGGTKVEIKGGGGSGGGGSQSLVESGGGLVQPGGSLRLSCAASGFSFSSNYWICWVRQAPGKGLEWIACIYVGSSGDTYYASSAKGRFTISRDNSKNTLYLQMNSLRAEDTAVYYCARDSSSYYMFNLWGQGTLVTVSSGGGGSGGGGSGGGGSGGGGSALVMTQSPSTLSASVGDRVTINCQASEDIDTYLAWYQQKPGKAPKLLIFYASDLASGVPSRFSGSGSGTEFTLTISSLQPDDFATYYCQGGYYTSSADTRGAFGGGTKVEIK
light: B5 light
notes: Tetra-specific antibody, symmetric dimer; also called SI-39E04; 39 E04
B8: SI-35E26 (466F6 x PL230C6 x 330F11 x 284A10) (antibody, human IgG1, kappa)
heavy: not shown
light: B1 light
notes: Tetra-specific antibody, symmetric dimer; also called '26' in 'SI-3524, 25, and 26'
B9: SI-35E24 (460C3 x PL230C6 x 330F11 x 284A10) (antibody, human IgG1, kappa)
heavy: not shown
light: B1 light
notes: Tetra-specific antibody, symmetric dimer; also called SI-3524
B10: SI-35E25 (420H5 x PL230C6 x 330F11 x 284A10) (antibody, human IgG1, kappa)
heavy: not shown
light: B1 light
notes: Tetra-specific antibody, symmetric dimer; also called '25' in 'SI-3524, 25, and 26'

Target: T1, human PD-L1 on transfected CHO cells (human, UniProt Q9NZQ7 19-290)
T1 construct: whole, on cells; also called PD-L1 expressing CHO cells; human PD-L1 transfected CHO cells
Assay: FACS on human PD-L1 transfected CHO cells, PE goat anti-human IgG Fc secondary; y axis without label

| binding result | Binder |
| --- | --- |
| binds | B1 |

Target: PD-L1 protein antigen (immobilized on the sensor) (UniProt Q9NZQ7 19-238, limits assumed)
Assay: Octet RED96, antigen immobilized

| Kd | Response | koff | kon | Binder |
| --- | --- | --- | --- | --- |
| 0.0801 nM | 1.92 | 3.32e-05 s⁻¹ | 415000 M⁻¹ s⁻¹ | B2 |
| 0.0685 nM | 1.94 | 2.61e-05 s⁻¹ | 381000 M⁻¹ s⁻¹ | B3 |
| 0.283 nM | 1.72 | 0.000106 s⁻¹ | 376000 M⁻¹ s⁻¹ | B4 |
| 0.0402 nM | 1.9 | 1.94e-05 s⁻¹ | 483000 M⁻¹ s⁻¹ | B5 |
| 0.168 nM | 1.83 | 6.37e-05 s⁻¹ | 379000 M⁻¹ s⁻¹ | B6 |
| 0.0723 nM | 2.15 | 2.41e-05 s⁻¹ | 333000 M⁻¹ s⁻¹ | B7 |

Target: 4-1BB protein antigen (immobilized on the sensor) (UniProt Q07011 24-186, limits assumed)
Assay: Octet RED96, antigen immobilized

| Kd | Response | koff | kon | Binder |
| --- | --- | --- | --- | --- |
| 0.117 nM | 2.47 | 2.65e-05 s⁻¹ | 227000 M⁻¹ s⁻¹ | B2 |
| 0.0356 nM | 2.63 | 7.43e-06 s⁻¹ | 209000 M⁻¹ s⁻¹ | B3 |
| 0.696 nM | 2.02 | 0.000141 s⁻¹ | 203000 M⁻¹ s⁻¹ | B5 |
| 0.393 nM | 2.02 | 9.24e-05 s⁻¹ | 235000 M⁻¹ s⁻¹ | B6 |
| 0.354 nM | 2.42 | 5.91e-05 s⁻¹ | 167000 M⁻¹ s⁻¹ | B7 |

Target: T2, CD3 e/d antigen (immobilized on the sensor) (UniProt P07766 23-126; P04234 22-105)
T2 construct: 'e/d' read as epsilon/delta; construct not described
Assay: Octet RED96, antigen immobilized

| Kd | Response | koff | kon | Binder |
| --- | --- | --- | --- | --- |
| < 0.001 nM | 1.8 | < 1e-07 s⁻¹ | 104000 M⁻¹ s⁻¹ | B2 |
| < 0.001 nM | 2.24 | < 1e-07 s⁻¹ | 110000 M⁻¹ s⁻¹ | B3 |
| 0.475 nM | 1.85 | 7.86e-05 s⁻¹ | 166000 M⁻¹ s⁻¹ | B4 |
| 0.207 nM | 2.65 | 2.54e-05 s⁻¹ | 123000 M⁻¹ s⁻¹ | B5 |
| 0.632 nM | 1.76 | 0.00011 s⁻¹ | 174000 M⁻¹ s⁻¹ | B6 |
| < 0.001 nM | 1.97 | < 1e-07 s⁻¹ | 86100 M⁻¹ s⁻¹ | B7 |

Target: T3, human 4-1BB on transfected CHO cells (human, UniProt Q07011 24-255)
T3 construct: whole, on cells; also called 41BB expressing CHO cells; human 41BB transfected CHO cells
Assay: FACS on human 4-1BB transfected CHO cells, PE goat anti-human IgG Fc secondary; y axis without label

| binding result | Binder |
| --- | --- |
| binds | B1 |

Target: T4, full length human ROR1 stably expressed on CHO cells (human, UniProt Q01973 30-937)
T4 construct: whole, on cells; also called ROR1-CHO cells; human ROR1 transfected CHO cells
Assay: FACS on CHO cells stably expressing full length human ROR1, PE goat anti-human IgG Fc secondary; y axis without label

| binding result | Binder |
| --- | --- |
| binds | B1 |
| no binding (tested: 10 nM) | B8 |
| no binding (tested: 10 nM) | B9 |
| no binding (tested: 10 nM) | B10 |
